The source of these data is patent US6376240.

For data set [1], the system named is recombinant His6-RFLAT-1 (C-terminal portion of RFLAT-1, amino acids 59-288).
The target in data set [2] is RFLAT-1 full length (homo sapien) (UniProt Q9Y2Y9). Nature of the data set: cell_activity. The note with it: Jurkat T cells.
RFLAT-1 full length (homo sapien), sequence (Q9Y2Y9 other isoform, or with tags, fused parts or gaps): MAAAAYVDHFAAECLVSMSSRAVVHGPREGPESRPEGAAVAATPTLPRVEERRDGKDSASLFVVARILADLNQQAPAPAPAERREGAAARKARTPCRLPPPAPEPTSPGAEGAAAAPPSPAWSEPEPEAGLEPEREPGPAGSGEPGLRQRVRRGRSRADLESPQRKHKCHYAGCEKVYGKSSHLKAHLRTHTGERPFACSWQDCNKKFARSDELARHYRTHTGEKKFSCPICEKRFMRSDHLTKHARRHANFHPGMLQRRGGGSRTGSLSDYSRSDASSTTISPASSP

recombinant His6-RFLAT-1 (C-terminal portion of RFLAT-1, amino acids 59-288), sequence (chain, as listed by the source): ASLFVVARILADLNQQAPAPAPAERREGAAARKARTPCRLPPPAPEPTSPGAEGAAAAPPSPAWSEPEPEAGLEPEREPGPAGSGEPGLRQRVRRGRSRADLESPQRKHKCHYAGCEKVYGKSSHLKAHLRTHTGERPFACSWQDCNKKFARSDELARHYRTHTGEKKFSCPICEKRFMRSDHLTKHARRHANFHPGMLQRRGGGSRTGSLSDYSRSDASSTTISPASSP

NILK: in data set [1], the “phosphorylation of recombinant RFLAT-1 by immunoprecipitated kinase” value is “the immunoprecipitated NILK from activated PBLs phosphorylates recombinant RFLAT-1”.

In data set [2] (about 5 fold in NIH3T3), RANTES promoter pGL2-R-luciferase registered an activity (fold induction) of 10.

Substance three A/B sites luciferase reporter displayed an activity (fold induction) in data set [2] (similar degree of induction) of 10.
